Data from the supplement of paper PMC10126150.
± gives the standard deviation of the averaged measurements.

Each sequence was assayed on ATP (assay: switch fluorescence ratio, 500 uM ATP over buffer (Cy3 cluster intensity, sum of 5 cycles each) (fold (ratio)); higher = stronger signal-on switching upon ATP binding; sequences stand for … in TCGTCGGCAGCGTCAGATGTGTATAAGAGACAGTTTTTTTTTTTTTTTTTTTTTTTTT…TC). Conditions: aptamer strand: ATP DNA aptamer (quencher-CACCTGGGGGAGTATTGCGGAGGAAGG + anchor), 100 nM annealed; ATP concentration: 500 uM.
In short: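 Per cluster, summed Cy3 intensity from the target cycles was divided by that from the buffer cycles to give the fluorescence ratio, then averaged per switch-domain sequence. Clusters outside 100-1000 RFU were excluded. The Cy3-labelled switching-strand clusters, on a modified Illumina MiSeq flow-cell, were annealed to 100 nM quencher-labelled ATP aptamer and imaged in selection buffer, then after 15 min with 500 uM ATP at 22 °C, for five cycles with NaOH stripping and re-annealing between them.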
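Also: ATP exposure 15 min at 22 °C before imaging.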

Sequence | switch fluorescence ratio
GATAGTGAGC | 0.983 ± 0.036
GATAGTTAGG | 1.01 ± 0.021
GATATAAACG | 1.02 ± 0.03
GATATATAAT | 1.014 ± 0.002
GATATCATTT | 1.03 ± 0.022
GATATCCAGC | 1.02 ± 0.023
GATATCCCGG | 0.987 ± 0.022
GATATCGATG | 1.029 ± 0.0089
GATATCGCCG | 1.022 ± 0.0034
GATATCGTCT | 1.03 ± 0.028
GATATGGGGA | 0.994 ± 0.044
GATATGGGGT | 0.9828 ± 0.0085
GATATTTGAT | 0.995 ± 0.042
GATCAATTGG | 1.02 ± 0.026
GATCACTGTT | 0.996 ± 0.062
GATCATCCTT | 1.03 ± 0.0052
GATCATCGAT | 1.02 ± 0.013
GATCATTAGA | 1.05 ± 0.061
GATCATTGAG | 0.991 ± 0.012
GATCATTGTT | 1.007 ± 0.0088
GATCATTTTT | 0.984 ± 0.021
GATCCAGCGG | 1.02 ± 0.025
GATCCTAAGC | 0.99 ± 0.014
GATCCTGGGC | 1.03 ± 0.015
GATCGAAGTT | 0.984 ± 0.033

Sequence | switch fluorescence ratio
GATCGAGGTC | 1.0474 ± 0.001
GATCGGGAGG | 0.9844 ± 0.0089
GATCGGGGAA | 1.01 ± 0.02
GATCGGGGGT | 1.01 ± 0.027
GATCGTATTC | 1.05 ± 0.088
GATCTAGAGG | 0.994 ± 0.019
GATCTCAGAG | 0.967 ± 0.014
GATCTCCGGC | 1.63 ± 0.063
GATCTGGATA | 0.9964 ± 0.0013
GATCTGGTAC | 1.06 ± 0.037
GATCTTATCT | 1.03 ± 0.022
GATCTTGATG | 1.02 ± 0.036
GATCTTTCCG | 1.08 ± 0.059
GATCTTTCGT | 1.01 ± 0.031
GATCTTTTTG | 1.02 ± 0.014
GATGAAAGGG | 1.22 ± 0.46
GATGAACCTA | 1.04 ± 0.024
GATGAATGTT | 0.9766 ± 0.0041
GATGAGAATT | 0.98912 ± 0.00024
GATGAGGATT | 1.01 ± 0.011
GATGAGGTAT | 0.9899 ± 0.002
GATGATCACA | 0.951 ± 0.036
GATGATCAG | 0.978 ± 0.035
GATGATGTCC | 0.96 ± 0.01
GATGCAAGAG | 3.78 ± 0.7

Sequence | switch fluorescence ratio
GATGCAATCT | 1.44 ± 0.08
GATGCAGCAA | 1.22 ± 0.062
GATGCCGGGG | 1.05 ± 0.095
GATGCCTTTG | 0.994 ± 0.018
GATGCGGGAC | 1.34 ± 0.07
GATGCGGGGC | 1.06 ± 0.03
GATGCGTCAC | 1.06 ± 0.056
GATGCGTGCT | 0.993 ± 0.055
GATGCGTTCG | 1.01 ± 0.018
GATGGAGTTA | 1.01 ± 0.047
GATGGATAAG | 1.009 ± 0.0024
GATGGATTCG | 1.01 ± 0.026
GATGGCAGCA | 1.021 ± 0.0086
GATGGCTTGG | 0.987 ± 0.018
GATGGGAGTT | 1.01 ± 0.014
GATGGGCAGG | 1 ± 0.024
GATGGGGATA | 1.02 ± 0.013
GATGGGGGCC | 0.998 ± 0.026
GATGGGGGCG | 1.03 ± 0.093
GATGGGGGGA | 1.01 ± 0.029
GATGGGGGTT | 1 ± 0.012
GATGGGGTAG | 0.994 ± 0.039
GATGGGTGAC | 0.992 ± 0.024
GATGGTAGTC | 0.994 ± 0.027
GATGGTGAAA | 0.975 ± 0.039

Sequence | switch fluorescence ratio
GATGGTGTTT | 1 ± 0.034
GATGTAAGTG | 0.972 ± 0.02
GATGTAATTG | 0.9822 ± 0.0094
GATGTACGCA | 0.973 ± 0.075
GATGTAGACT | 0.9818 ± 0.0033
GATGTATAAA | 1.0015 ± 0.00099
GATGTATGGA | 0.997 ± 0.027
GATGTATGGG | 0.984 ± 0.015
GATGTGAGGC | 1.14 ± 0.046
GATGTGCAGA | 0.959 ± 0.038
GATGTGCAGG | 0.9915 ± 0.0084
GATGTGGTCT | 1.014 ± 0.0075
GATGTGTCCG | 0.956 ± 0.086
GATGTGTGGC | 0.974 ± 0.022
GATGTTAGGG | 0.983 ± 0.026
GATGTTCGGC | 1.05 ± 0.037
GATGTTGGGA | 0.989 ± 0.016
GATTAAATAC | 1.24 ± 0.064
GATTAAGAAT | 1 ± 0.027
GATTAGAAGG | 1 ± 0.026
GATTAGGGTG | 1.01 ± 0.026
GATTATAAGG | 1.007 ± 0.01
GATTATAAGT | 0.99 ± 0.017
GATTATATGG | 1 ± 0.039
GATTATATTT | 0.997 ± 0.045
